We go through 41 sequences from the nanobody polyreactivity screen of Harvey et al. (2022).

The nature of the data set: yeast display, Sf9 membrane polyspecificity reagent, FACS + sequencing; frameworks hold sequencing errors. An outline of the steps: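 A synthetic nanobody library was expressed on Saccharomyces cerevisiae BJ5465 by galactose induction for 36–48 hours. The library was stained for 1 hour at 4 °C with 10% biotinylated, detergent-solubilized Sf9 membrane reagent and enriched with streptavidin microbeads before FACS. Low and high (top ~1%) gates were set on anti-HA fluorescence for expression and streptavidin fluorescence for reagent binding, and each polyreactivity label reflects the gate of origin.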
For “QVQLVESGGGLVQAGGSLRLSCAASGLTFSRYAMGWYRQAPGKERELVAAITSIGGSTYYADSVKGRFTISRDNAKNTVYLQMNSLKPEDTAVYYCRAFFRRDYWGQGTQVTVSS”, the “polyreactivity (PSR sort gate)” value was “high polyreactivity”.
In the case of “QVQLVESGGGLVQAGGSLRLSCAASGLTFSRYAMGWYRQAPGKERELVAAITWSGSSTYYADSVKGRFTISRDNAKNTVYLQMNILKQEDTAVYYCAARYGYSRGPYYRSDYWGQGTQVTVSS”, the “polyreactivity (PSR sort gate)” value is “high polyreactivity”.
The result for “QVQLVESGGGLVQAGGSLRLSCAASGLTFSTYAMGWYRQAPGKERELVAVIRRTGSTYYADSVKGRFTISRDNAKNTVYLQMNSLKPEDTAVYYCATARRHVSGYDYWGQGTQVTVSS” reads “high polyreactivity”; that for “QVQLVESGGGLVQAGGSLRLSCAASGLTFSWYAMGWYRQAPGKEREFVATISASGGSTYYADSVKGRFTISRDNAKNTVYLQMNSLKPEDTAVYYCNAIYFRYRNGGYDYWGQGTQVTVSS”, “high polyreactivity”; that for “QVQLVESGGGLVQAGGSLRLSCAASGLTFTINAMGWYRQAPGKERELVAAITGNNTSTYYADSVKGRFTISRDNAKNTVYLQMNSLKPEDTAVYYCAASVYHYGPLYYWGQGTQVTVSS”, “low polyreactivity”.
The result for “QVQLVESGGGLVQAGGSLRLSCAASGLTFTLNAMGRYRQATGKERELVATISQDGGGTTYADSVKGRFTISRDNAKNTVYLQMNSLKPEDTAVYYCATTLPPSVWGEWSGTRYPYDYWGQGTQVTVSS” reads “low polyreactivity”; that for “QVQLVESGGGLVQAGGSLRLSCAASGLTFTNYAMGWYRQAPGKELELVAAISSSGSDTYYADSVKGRFTISRDNAKNTVYLQMNSLKPEDTAVYYCAAVLTALSPDFEYEYWGQGTQVTVSS”, “low polyreactivity”; that for “QVQLVESGGGLVQAGGSLRLSCAASGLTFTQYAMGWYRQAPGKERELVAAITSGGRTYYADSVKGRFTISRDNAKNTVYLQMNSLKPEDTAVYYCAADRRYVDAYHFGYWGQGTQVTVSS”, “high polyreactivity”.
On to “QVQLVESGGGLVQAGGSLRLSCAASGLTFTTYAMGWYIPAPGKDRELVSAINYRGTSSYYADSVKGRFTISRDNAKKTVYLQINSLKPEDTAVYYCNARQTRSSRINYAEGIYNFWGQGTQVTVSS”, for which the “polyreactivity (PSR sort gate)” value is on record as “high polyreactivity”.
The result for “QVQLVESGGGLVQAGGSLRLSCAASGLTFTVNAMGWYRQAPGKERELVARIRNSGGRTYYADSVKGRFTISRDNAKNTVYLQMNSLKPEDTAVYYCAARRYYYQVGYDYWGQGTQVTVSS” reads “high polyreactivity”; that for “QVQLVESGGGLVQAGGSLRLSCAASGLTFTVYTMVWYRQAPGKERELVATNSWSDGRTYYADSVKGRFTISRDNAKNTVYLQMNSVKPEDTAVYYCATESITWYYFKHEYWGQGTQVTVSS”, “high polyreactivity”; that for “QVQLVESGGGLVQAGGSLRLSCAASGLTFVANAMGWYSQAPGKERELVARISSSGGSTYYADSVKGRFTISRDNAKNTVYLQMNSLKPEDTAVYYCASSQSGGYDYWGQGTQVTVSS”, “high polyreactivity”.
To “QVQLVESGGGLVQAGGSLRLSCAASGLTFVDYAMGWYRQAPGKERELVAAITSSGGSITYYADSVKGRFTISRDNAKNTVYSQMNSLKPEDTAVYYCNADYGIYTDSFRGPDYESWGQGTQVTVSS” belongs “low polyreactivity”; to “QVQLVESGGGLVQAGGSLRLSCAASGLTFVNSTMGWYRQAPGKEWEFVAAITSSGGSSTYYADSVKGRFTISRDNAKNTVYLQMNSLKPEDTAVYDCAAGFSRYVDIVILTVYTGDYWGQGTQVTVSS”, “low polyreactivity”.
To “QVQLVESGGGLVQAGGSLRLSCAASGLTFVRYAMGWYRQAPGKERELVAAITTRGGSTYYADSVKGRFTISRDNAKNTVYLQMNSLKPEDTAVFYCNADRVTSSSVRYDYWGQGTQVTVSS” belongs “high polyreactivity”.
“QVQLVESGGGLVQAGGSLRLSCAASGLTFVSYAMGWYRQAPGKERELVAAISYGGGSTNYADSVKGRFTISRDNAKNTVDLQMNSLKPEDTAVYYCAAEPGYYDEYGYWGQGTQVTVSS”: the “polyreactivity (PSR sort gate)” value is given as “low polyreactivity”.
Consider “QVQLVESGGGLVQAGGSLRLSCAASGLTFVYNDMGWYRQAPGKERELVAGITSGGSTSYADSVKGRFTISRDNAKNTVYLQMNSLKPEDTAVYYCAAGVYALRRDYWGQGTQVTVSS”, for which the “polyreactivity (PSR sort gate)” value is listed as “low polyreactivity”.
The result for “QVQLVESGGGLVQAGGSLRLSCAASGLTFVYNDMGWYRQAPGKERELVAGITSGGSTYYADSVKGRFTISRDNAKNTVYLQMNSLKPEDTAVYYCAADGLSTDLFRPDSIVDYWGQGTQVTVSS” reads “low polyreactivity”; that for “QVQLVESGGGLVQAGGSLRLSCAASGLTFVYYAMGWFRQAPGKERELVAAISRGGTTYYADSVKGRFTISRDNAKNTVYLQMNSLKPEETAVYYCNAARYGFGSAYDYWGQGTQGTVSS”, “high polyreactivity”.
To “QVQLVESGGGLVQAGGSLRLSCAASGLTFVYYAMGWYRQAPGKERELVAAISSGGSTYYADSVKGRFTISRDNAKNTVYLQMNSLKPEDTAVYYCAATYSSFRRYPGAHYRFGYWGQGTQVTVSS” belongs “high polyreactivity”; to “QVQLVESGGGLVQAGGSLRLSCAASGLTFVYYAMGWYRQAPGKERELVASIDYSGSSTYYADSVKGRFTISRDNSKNTVYLQMNSLKPEDTAVYYCAATDSGEYWGQGTQVTVSS”, “low polyreactivity”; to “QVQLVESGGGLVQAGGSLRLSCAASGLTFWANTMGWCRQAPGKEREFVAAITWSGGSTYYADSVKGRFTISRDNAKNTVNLQMNSLKPEDTAVYYCAADEDFAAGYSYYYWGQGSQVTVSS”, “low polyreactivity”.
Regarding “QVQLVESGGGLVQAGGSLRLSCAASGLTFWAYAMGWYRQAPGKEREFVAAISWSGDSTYYADSVKGRFTISRDNAKNTVYLQMNSLKPEDTAVYYCAAEWYYVYIAPYDYWGQGTQVTVSS”, the “polyreactivity (PSR sort gate)” value was “low polyreactivity”.
In the case of “QVQLVESGGGLVQAGGSLRLSCAASGLTFWGYAMGWYRQAPGKEREFVASISSGGGSTYYADSVKGRFTMSRDNAKNTVYLQMNSLKPEDTAVYYCNAYRTKYRNQYTYATFDYWGQGTQVTVSS”, the “polyreactivity (PSR sort gate)” value was “low polyreactivity”.
Consider “QVQLVESGGGLVQAGGSLRLSCAASGLTFWSYAMGWYRQAPGKERELVAAISSGGRTYYADSVKGRFTISRDNAKNTVYLQMNSLKPEDTAVYYCNARSRRGPTKDDYWGQGTQVTVSS”, for which the “polyreactivity (PSR sort gate)” value is listed as “high polyreactivity”.
With “QVQLVESGGGLVQAGGSLRLSCAASGLTFYAYAMGWYRQAPGKERELVAAISSRGGRTYYADSVKGRFTISRDNAKNTVYLQMNRLKPEDTAVYYCAARIYRYDTTVVPRYDYWGQGTQVTVSS”, the “polyreactivity (PSR sort gate)” value was “high polyreactivity”.
To “QVQLVESGGGLVQAGGSLRLSCAASGLTFYAYAMGWYRQAPGKERELVAHISWTGTTTYYADSVKGRFTISRDNAKNTVYLQMNSLKPEDTAVYYCAALIYRYAVAPPGYQYWLYYWGQGTLVTVSS” belongs “low polyreactivity”; to “QVQLVESGGGLVQAGGSLRLSCAASGLTFYDYAMGWYRQAPGKERELVADIDFNGGSTSYADSVKGRFTISRDNAKNTVYLQMNSLKREDTAVYYCNTRDRGDVVTGLDYWGQGTQVTVSS”, “low polyreactivity”.
Consider “QVQLVESGGGLVQAGGSLRLSCAASGLTFYGNAMGWYRQAPGKERELVAAITSNGGSTYYADSVKGRFTISRDNAKNTVYLQMISLKPEDTAVYYCNVDTGYDYWYPGYGYWGQGTQVTVSS”, for which the “polyreactivity (PSR sort gate)” value is “low polyreactivity”.
With “QVQLVESGGGLVQAGGSLRLSCAASGLTFYGYAMGWYRQAPGKERELVAAIRWSGGRTYYADSVKGRFTISRDNAKNTVYLQMNSLKPEDTAVYYCAADYRRYYGGDYWGQGTQVTVSS”, the “polyreactivity (PSR sort gate)” value is “low polyreactivity”.
Take “QVQLVESGGGLVQAGGSLRLSCAASGLTFYINDMGWYRQAPGKERELVAAITRGGSTNYADSVKGRLTISRDNAKNTVYLQMNSLKPEDTAVYYCAAGARYGYGYWGHGTQVTVSS”: the “polyreactivity (PSR sort gate)” value was “high polyreactivity”.
Turning to “QVQLVESGGGLVQAGGSLRLSCAASGLTFYKNAMGWYRQAPGKVRELVAVISSSGGSTYYADSVKGRFTISRDKAKNTVYLQMNSLKPEDTAVYYCARDLYTEYRWGRLTYDYWGQGTQVTVSS”, the “polyreactivity (PSR sort gate)” value was “low polyreactivity”.
To “QVQLVESGGGLVQAGGSLRLSCAASGLTFYLYAMGWYRQAPGKERELVAAISRSGGSTYYADSVKGRFTISRDNAKNTVYVQMYSLKPEDTAVYYCAAVTYYPEIRKYYDWRQGTQVTVSS” belongs “high polyreactivity”; to “QVQLVESGGGLVQAGGSLRLSCAASGLTFYNNAMGWYRQAPGKERELVARISSGGSTYYADSVKGRFTISRDNAKNTVYLQMNSLKPEDTAVYYCAAGRGYWWWYGYDYWGQGTQVTVSS”, “low polyreactivity”.
To “QVQLVESGGGLVQAGGSLRLSCAASGLTFYPYTMGWYRQAPGKERELVAAISSGGSTYYADSVKGRFTISRDNAKNTVYLQMNSLKPEDTAVYYCAARYPYFSYGYWGQGTQVTVSS” belongs “high polyreactivity”; to “QVQLVESGGGLVQAGGSLRLSCAASGLTFYQYALGWSRQAPGNDREWVAAITRGGTTNYADSVKGRFTISRDNAKNTVYLQMNSLKPEDTAVYYCNKGLVFDGYDYWGQGTQVTVSS”, “high polyreactivity”; to “QVQLVESGGGLVQAGGSLRLSCAASGLTFYQYAMGWYRQAPGKERELVAAISQSAGSTYYADSVKGRFTISRDNAKNTVYLQMNSLKPEDTAVYYCAARVLRLRYDYWGQGTQVTVSS”, “high polyreactivity”.
To “QVQLVESGGGLVQAGGSLRLSCAASGLTFYRNVMGWYRQAPGKERELVAVITSGGRTNYADSVKGRFTISRDNAKNTVYLQMNSLKPEDTAVYYCNTALSSRSNKMYYWGQGTQVTVSS” belongs “high polyreactivity”; to “QVQLVESGGGLVQAGGSLRLSCAASGLTFYRYTMGWYRQAPGKERELVAAIRSSGGRTYYADSVKGRFTISRDNAKNTVYLQKNSLKPEDTAVYYCNAVRYNSVGYVYWGQGTQVTVSS”, “high polyreactivity”; to “QVQLVESGGGLVQAGGSLRLSCAASGLTFYSNAMRWYRQAPGKEREVVARISTGGSTYADSVKGRFTISRDNAKKTVYLQMNSLKPQDTEVYYCAKLPPRGIDDEYWGQGTQVTVSS”, “low polyreactivity”.
As for “QVQLVESGGGLVQAGGSLRLSCAASGLTFYSYAMGWYRQAPGKERELVAAISKSGGSTYYADSVKGRFTISRDNAKNSVYLQMNSLKPEDTAVYYCNALTKTGTPPDYDYWGQGTQVTVSS”, the “polyreactivity (PSR sort gate)” value is given as “high polyreactivity”.
